What was measured:
[1] = system: CD44 (predominantly standard isoform CD44s) on human TNBC cells (Homo sapiens (Cis-Pt-R, MDA-MB-231, BT-549 cells)), P16070-12; experiment: flow cytometry cell binding; details: apparent Kd on whole Cis-Pt-R cells; 2'-fluoro pyrimidines (2'F-Py) in the entire sequence; Flow cytometry: 150 nM Alexa 647-sTN58, serum-free medium, 0.1 mg/mL yeast tRNA, 0.1 mg/mL salmon sperm DNA, 10 min RT, after 30-fold excess unlabeled SCR …; cited from earlier work
[2] = system: CD44 (predominantly standard isoform CD44s) on human TNBC cells (Homo sapiens (Cis-Pt-R, MDA-MB-231, BT-549 cells)), P16070-12; experiment: flow cytometry cell binding with siRNA knockdown; details: 150 nM aptamer, 2'-fluoro pyrimidines (2'F-Py) in the entire sequence, Flow cytometry: 150 nM Alexa 647-sTN58, serum-free medium, 0.1 mg/mL yeast tRNA, 0.1 mg/mL salmon sperm DNA, 10 min RT, after 30-fold excess unlabeled SCR …, scale: % reduction of binding on CD44 knockdown vs siRNA ctrl

CD44 (predominantly standard isoform CD44s) on human TNBC cells (Homo sapiens (Cis-Pt-R, MDA-MB-231, BT-549 cells)), P16070-12, sequence (P16070 other isoform, or with tags, fused parts or gaps): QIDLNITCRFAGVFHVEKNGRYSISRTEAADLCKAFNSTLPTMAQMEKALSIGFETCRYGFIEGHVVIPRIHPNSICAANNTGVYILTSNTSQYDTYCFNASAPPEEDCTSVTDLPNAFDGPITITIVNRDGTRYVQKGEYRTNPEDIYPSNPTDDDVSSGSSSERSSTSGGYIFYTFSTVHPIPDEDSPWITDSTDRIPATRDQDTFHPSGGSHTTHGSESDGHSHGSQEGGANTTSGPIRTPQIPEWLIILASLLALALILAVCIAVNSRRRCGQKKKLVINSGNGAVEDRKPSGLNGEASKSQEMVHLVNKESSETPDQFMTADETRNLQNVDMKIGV

For “GGACAUAUGAUGCAACGUUGUGGUCCCGUUUGCACUUUGUUUACG [sTN58]”, the Kd [1] is listed as 10 nM and the binding signal [2] is listed as 55.

— paper PMC12059597
